Assay: Enzymatic deesterification of paprika oleoresin carotenoids, HPLC determination
Assay type: biochemical
Procedure: HPLC was conducted on a Shimadzu LC-10 AT equipped with SCL-10A Shimadzu diode array detector. Photodiode array measurements of spectral properties from the individual peaks (from 260 to 540 nm) were determined at the upslope, apex and downslope. The column (Merck RP-18e 3.4×250 […], 5-μm particles) was used for HPLC separations. The peaks were detected at 450 and 474 nm.
Deesteriflcation paprika oleoresin by enzymes: Paprika oleoresin (20 mg) was mixed with TWEEN-20 (200 μl) or deoxycholate (100 mg) and 10 ml of H2O. The emulsion has been shaken at 37° C. for 24 hours. Extraction of carotenoids was performed by the addition of 4 ml of ethanol and 5 ml of hexane. The extraction with hexane was done repeatedly until no color could be observed in the extracts. The combined hexane extracts were washed with water (25 ml) and dried over anhydrous sodium sulfate for HPLC determination of the carotenoids.

B1: pancreatic lipase: lipase pancreatic from porcine, obtained from Sigma Chemical Co. (protein, UniProt P00591 1-450, looked up)
Pancreatic triacylglycerol …: SEVCFPRLGCFSDDAPWAGIVQRPLKILPWSPKDVDTRFLLYTNQNQNNYQELVADPSTITNSNFRMDRKTRFIIHGFIDKGEEDWLSNICKNLFKVESVNCICVDWKGGSRTGYTQASQNIRIVGAEVAYFVEVLKSSLGYSPSNVHVIGHSLGSHAAGEAGRRTNGTIERITGLDPAEPCFQGTPELVRLDPSDAKFVDVIHTDAAPIIPNLGFGMSQTVGHLDFFPNGGKQMPGCQKNILSQIVDIDGIWEGTRDFVACNHLRSYKYYADSILNPDGFAGFPCDSYNVFTANKCFPCPSEGCPQMGHYADRFPGKTNGVSQVFYLNTGDASNFARWRYKVSVTLSGKKVTGHILVSLFGNEGNSRQYEIYKGTLQPDNTHSDEFDSDVEVGDLQKVKFIWYNNNVINPTLPRVGASKITVERNDGKVYDFCSQETVREEVLLTLNPC
With B1 the “extent of deesterification of paprika carotenoids” value (general statement, "shown herein") was “to a very limited extent” and the “deesterification in similar assays with other lipases, compared with lipase amano 30” value (similar assays to FIGS. 3 and 4) was “far poorer results”.

Source: patent publication US20040175785A1, “Increasing bioavailability of carotenoids” (priority 2001, published 2004)
